Experimental data: US9579358B2, “Compositions for binding to amyloid proteins” (LANCASTER UNIVERSITY BUSINESS ENTERPRISES LIMITED, priority 2011, dated 2017)
Read-outs that look alike come from different tables or passages of the source. One block for each molecule: values may come before it. Non-standard residues stand in square brackets, D forms with d. Residues, ends and D or L forms follow the SMILES beside them. No end group written: not given here.

Tests used:
Aβ42 [1] = molecular target: T1, Aβ42 (Homo sapiens, UniProt P05067); test: Thioflavin T (ThT) assay for Aβ fibrils; type: biochemical; conditions: for % of control: Aβ alone = 100
T1 construct: Recombinant Aβ42, Ultrapure, was purchased from rPeptide, Bogart, Ga., USA; purchased rPeptide, Bogart, Ga., USA
Protocol: This method was the same as that published previously. Briefly, 60 μl samples of solutions containing Aβ42 (25 μM), ThT (15 μM) and between 0 and 125 μM RI-OR2 or RI-OR2-TAT, in 10 mM phosphate buffered saline (PBS), pH 7.4, were incubated in sealed, black, clear-bottomed 384-well plates (Corning). ThT fluorescence was monitored every 10 mins (λex=442 nm, λem=483 nm) for 48 h at 30° C. in a Biotek Synergy 2 plate reader.

Aβ42 [2] = molecular target: T1, Aβ42; test: Atomic force microscopy of incubated Aβ42; type: biochemical; conditions: 1:2 molar ratio RI-OR2-TAT:Aβ42; Aβ42 25 μM, 24 h
Protocol: Aβ42 was incubated at 25 μM in the presence or absence of 12.5 μM RI-OR2-TAT in PBS, pH 7.4, for 24 h. Samples were diluted 1:10 in PBS and then a 2 μl aliquot was deposited onto the surface of freshly cleaned mica and allowed to dry.
Images were obtained in tapping mode using a Multimode™ SPM NanoScope IIIa microscope (Digital Instruments, New York, USA). Silicon cantilever tips measuring 125 μm long, 30 μm wide and with a tip radius <10 nm were used (Budget Sensors, Bulgaria). The resonance frequency was 300 kHz and force constants 40 Nm. All images were first order flattened and edited using WSxM 5.0 Develop 4.3 software, (Nanotech, Madrid, Spain).

Aβ42 fibrils = molecular target: T2, Aβ42 fibrils (Homo sapiens, UniProt P05067); test: Surface plasmon resonance binding to immobilized Aβ42 fibrils
T2 construct: purchased rPeptide, Bogart, Ga., USA
Excerpt: SPR (Surface Plasmon Resonance) is a technique that can be used to measure the affinity of a substance for a substrate. The substrate (in this case Aβ fibrils) is bound to a solid surface and excited using a laser light source. The compound to be tested (e.g. PINPs) is allowed to flow over the bound substrate in suspension/solution and the emission spectra of the substrate will change if the compound binds. A second solution, without the test compound, can then added to elute any bound compound and the emission spectra may be observed to note loss of bound compound from the substrate. For a specific example regarding peptide binding to Aβ see reference (30).
In the examples presented here, The substance is introduced at a flow rate of 30 uL/min for 5 minute over the immobilized substrate. There is a spike in the signal which is due to the introduction of solvent without PINPs to show removal of the peptide bound to the Aβ fibrils. There are two plots related to addition of peptide at two different concentrations, 1 and 3 μM, plus a computer generated fitted curve for each one.
These experiments were conducted using a Sensi Q semi-automatic SPR machine (ICx Nomadics). This apparatus has two parallel flow cells; one was used to immobilize Aβ42 fibrils while the other was used as “reference” (empty surface). A COOH5 sensor chip (ICx Nomadics) was employed for this purpose and the peptide was immobilized by amine coupling chemistry. Briefly, after surface activation, the peptide preparation was diluted to 10 μM in acetate buffer (pH 4.0) and then injected for 5 min at a flow rate of 30 μL/min. Any remaining activated groups were blocked with ethanolamine (pH 8.0). The final immobilization level was ˜5,000 resonance units (1 RU=1 pg of protein/mm^2). The empty “reference” surface was prepared in parallel using the same immobilization procedure, but without addition of the peptide. Sensorgrams were then obtained via injection of three different concentrations of RI-OR2-TAT (1, 3 and 6 μM), as well as the vehicle (PBS with 0.005% Tween 20), over the immobilized ligand or control surface, in parallel.
These experiments were conducted using a Sensi Q semi-automatic SPR machine (ICx Nomadics). This apparatus has two parallel flow cells; one was used to immobilize Aβ(1-42) fibrils (see Aβ peptides) while the other was used as “reference” (empty surface). A COOH5 sensor chip (ICx Nomadics) was employed for this purpose and the peptide was immobilized by amine coupling chemistry. Briefly, after surface activation, the peptide preparations was diluted to 10 μM in acetate buffer (pH 4.0) and then injected for 5 min at a flow rate of 30 μL/min. Any remaining activated groups were blocked with ethanolamine (pH 8.0). The final immobilization level was 5000 resonance units (1 RU=1 pg of protein/mm^2). The empty “reference” surface was prepared in parallel using the same immobilization procedure, but without addition of the peptide. Sensorgrams were then obtained via injection of two different concentrations of RI-OR2 TAT/peptide liposome (1 and 3 μM), as well as the vehicle (PBS with 0.005% Tween 20), over the immobilized ligand or control surface, in parallel, at the same time.

[3] = Nanoparticle Tracking Analysis (NTA); type: physicochemical
Excerpt: The particles were investigated by Nanoparticle Tracking Analysis (NTA) which is a method for visualizing and analyzing particles in liquids that can be used to determine the size of individual particles by tracking their rate of Brownian motion.

SHSY-5Y cells = test: MTT cell viability assay, protection from pre-aggregated Aβ1-42; type: cell-based; conditions: for Absorption units (560 nm): control with Abeta 2.467, no Abeta 3.608
Protocol: SHSY 5Y cells were grown and maintained in DMEM (Dulbecco's Modified Eagle Medium) supplemented with FBS under standard mammalian cell culture conditions. During treatment cells were kept in Optimem plus or minus peptide liposomes in 96 well plates at 20000 cells per well for 24 hours, again under standard culture conditions. For cell protection assays 5 μM of pre-aggregated Aβ1-42 was added at the same time as peptide liposomes. Cell viability was assessed for four wells for each treatment using a Promega CellTiter assay kit.

[4] = read-out: Kd, binding to Aβ fibrils

T1 sequence (P05067 672-713 limits assumed): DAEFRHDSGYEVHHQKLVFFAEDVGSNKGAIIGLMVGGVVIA
T2 sequence (P05067 672-713 limits assumed): as above

- ThT fluorescence (Aβ42 [1]; 48 h incubation of Aβ42, molar ratios 1:1, 1:2, 1:4 and 1:10 (inhibitor:Aβ42)): lower fluorescence
- oligomer formation in AFM images (Aβ42 [2]): clear inhibition of oligomer formation
- increase in affinity of binding to Aβ fibrils compared to RI-OR2 (Aβ42 fibrils): approximately 1000 fold
- koff (Aβ42 fibrils; Example 2, 1, 3 and 6 μM): 0.00037 ± 1.5e-08 s⁻¹
- kon (Aβ42 fibrils; Example 2, 1, 3 and 6 μM): 3680 ± 615 M⁻¹ s⁻¹
- Kd (Aβ42 fibrils; Example 2, Langmuir 1:1 interaction model, read-out: calculated apparent affinity value (Kd)): 58 to 125 nM
- binding affinity for Aβ42 fibrils relative to RI-OR2 (Aβ42 fibrils; Example 2, versus Kd=9.5 μM): ~100 fold
- binding affinity relative to peptide without TAT (Aβ42 fibrils; Example 7): approximately 1000 times
- Kd (Aβ42 fibrils; Example 7, 1 and 3 μM, read-out: Kd, binding to Aβ fibrils): 15 to 75 nM
- Kd (Aβ42 fibrils; [4]): 41 to 75 nM
Molecule: CC(=O)N[C@H](CCCNC(=N)N)C(=O)NCC(=O)N[C@H](Cc1ccccc1)C(=O)N[C@H](Cc1ccccc1)C(=O)N[C@@H](C(=O)N[C@H](CC(C)C)C(=O)N[C@H](CCCCN)C(=O)NCC(=O)N[C@H](CCCNC(=N)N)C(=O)N[C@H](CCCNC(=N)N)C(=O)N[C@H](CCCNC(=N)N)C(=O)N[C@H](CCCNC(=N)N)C(=O)N[C@H](CCC(N)=O)C(=O)N[C@H](CCCNC(=N)N)C(=O)N[C@H](CCCNC(=N)N)C(=O)N[C@H](CCCCN)C(=O)N[C@H](CCCCN)C(=O)N[C@H](CCCNC(=N)N)C(=O)NCC(=O)N[C@H](Cc1ccc(O)cc1)C(N)=O)C(C)C [RI-OR2-TAT, Ac-rGffvlkGrrrrqrrkkrGy-NH2] (Ac-[dR]G[dF][dF][dV][dL][dK]G[dR][dR][dR][dR][dQ][dR][dR][dK][dK][dR]G[dY]-NH2)

Molecule: PINPs: RI-OR2-TAT covalently attached to nanoliposomes (cholesterol:sphingomyelin [1:1] with 2.5% maleimide) via an additional cysteine (Ac-[dR]G[dF][dF][dV][dL][dK]G[dR][dR][dR][dR][dQ][dR][dR][dK][dK][dR]G[dY][dC]; not fully specified (residue 21); also: C-terminal D-Cys coupled via its thiol to maleimide lipid of nanoliposome)
- reduction in aggregate formation (Aβ42 [1]; 1:50 molar ratio of PINPS:Aβ, 48 hours, Aβ1-42 25 μM): ~50%
- ThT signal by 48 hours (Aβ42 [1]; 1:500 molar ratio of PINPs (total lipids):Aβ): below that of Aβ1-42 alone
- RFU at 48 hours (Aβ42 [1]; 1 to 1 PINPS (total lipids):Aβ, Aβ1-42 25 μM): 13817 RFU
- % of control (Aβ42 [1]; 1 to 1 PINPS:Aβ, 48 hours): 7.1%
- RFU at 48 hours (Aβ42 [1]; 1 to 5 PINPS (total lipids):Aβ, Aβ1-42 25 μM): 14450 RFU
- % of control (Aβ42 [1]; 1 to 5 PINPS:Aβ, 48 hours): 7.4%
- RFU at 48 hours (Aβ42 [1]; 1 to 10 PINPS (total lipids):Aβ, Aβ1-42 25 μM): 15664 RFU
- % of control (Aβ42 [1]; 1 to 10 PINPS:Aβ, 48 hours): 8.1%
- RFU at 48 hours (Aβ42 [1]; 1 to 50 PINPS (total lipids):Aβ, Aβ1-42 25 μM): 85107 RFU
- % of control (Aβ42 [1]; 1 to 50 PINPS:Aβ, 48 hours): 44.0%
- RFU at 48 hours (Aβ42 [1]; 1 to 100 PINPS (total lipids):Aβ, Aβ1-42 25 μM): 132977 RFU
- % of control (Aβ42 [1]; 1 to 100 PINPS:Aβ, 48 hours): 68.8%
- RFU at 48 hours (Aβ42 [1]; 1 to 500 PINPS (total lipids):Aβ, Aβ1-42 25 μM): 165060 RFU
- % of control (Aβ42 [1]; 1 to 500 PINPS:Aβ, 48 hours): 85.5%
- RFU at 48 hours (Aβ42 [1]; 1 to 1000 PINPS (total lipids):Aβ, Aβ1-42 25 μM): 171555 RFU
- % of control (Aβ42 [1]; 1 to 1000 PINPS:Aβ, 48 hours): 88.8%
- RFU at 48 hours (Aβ42 [1]; 1 to 5000 PINPS (total lipids):Aβ, Aβ1-42 25 μM): 148012 RFU
- % of control (Aβ42 [1]; 1 to 5000 PINPS:Aβ, 48 hours): 76.6%
- RFU at 48 hours (Aβ42 [1]; 1 to 10000 PINPS (total lipids):Aβ, Aβ1-42 25 μM): 204059 RFU
- % of control (Aβ42 [1]; 1 to 10000 PINPS:Aβ, 48 hours): 105%
- RFU at 48 hours (Aβ42 [1]; 1 to 50000 PINPS (total lipids):Aβ, Aβ1-42 25 μM): 199514 RFU
- % of control (Aβ42 [1]; 1 to 50000 PINPS:Aβ, 48 hours): 103%
- RFU at 48 hours (Aβ42 [1]; 1 to 100000 PINPS (total lipids):Aβ, Aβ1-42 25 μM): 188616 RFU
- % of control (Aβ42 [1]; 1 to 100000 PINPS:Aβ, 48 hours): 97.0%
- Kd (Aβ42 fibrils; [4]): 14 to 44 nM
- average diameter [3]: 130 nm
- Absorption units (560 nm) (SHSY-5Y cells; PINPs 0.01 μM plus 5 μM pre-aggregated Aβ1-42): 3.370 Absorption units
- Absorption units (560 nm) (SHSY-5Y cells; PINPs 0.1 μM plus 5 μM pre-aggregated Aβ1-42): 3.478 Absorption units
- Absorption units (560 nm) (SHSY-5Y cells; PINPs 1 μM plus 5 μM pre-aggregated Aβ1-42): 3.252 Absorption units
- Absorption units (560 nm) (SHSY-5Y cells; PINPs 10 μM plus 5 μM pre-aggregated Aβ1-42): 3.538 Absorption units
- cell viability in the presence of pre-aggregated Aβ1-42 (SHSY-5Y cells; PINPs at 10, 1, 0.1, 0.01 μM): cell viability remained near that of untreated cells
